T1: DFNB31_1, Q9P202
T1 sequence (Q9P202 135-233, limits assumed, looked up): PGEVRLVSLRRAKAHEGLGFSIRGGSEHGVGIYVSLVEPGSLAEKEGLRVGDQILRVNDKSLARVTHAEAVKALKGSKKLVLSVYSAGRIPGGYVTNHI

T2: DLG3_1, Q92796
T2 sequence (Q92796 125-227, limits assumed, looked up): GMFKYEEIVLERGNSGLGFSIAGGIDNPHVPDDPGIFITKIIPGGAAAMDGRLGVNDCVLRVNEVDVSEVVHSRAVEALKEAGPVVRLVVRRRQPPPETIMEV

T3: DLG3_2, Q92796
T3 sequence (Q92796 221-321, limits assumed, looked up): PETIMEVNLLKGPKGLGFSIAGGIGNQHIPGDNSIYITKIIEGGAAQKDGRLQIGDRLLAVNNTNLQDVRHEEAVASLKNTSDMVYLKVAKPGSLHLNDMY

T4: LIN7B, Q9HAP6
T4 sequence (Q9HAP6 88-185, limits assumed, looked up): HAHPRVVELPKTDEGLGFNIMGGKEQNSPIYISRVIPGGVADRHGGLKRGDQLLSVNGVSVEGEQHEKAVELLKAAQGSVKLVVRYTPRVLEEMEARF

T5: MPDZ_10, O75970
T5 sequence (O75970 1624-1722, limits assumed, looked up): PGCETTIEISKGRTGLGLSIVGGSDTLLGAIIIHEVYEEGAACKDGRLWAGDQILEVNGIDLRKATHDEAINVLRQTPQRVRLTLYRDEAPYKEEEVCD

T6: MPDZ_12, O75970
T6 sequence (O75970 1857-1958, limits assumed, looked up): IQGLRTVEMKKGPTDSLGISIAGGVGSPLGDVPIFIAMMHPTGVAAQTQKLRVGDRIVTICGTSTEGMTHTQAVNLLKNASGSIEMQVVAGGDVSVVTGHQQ

T7: MPDZ_5, O75970
T7 sequence (O75970 695-796, limits assumed, looked up): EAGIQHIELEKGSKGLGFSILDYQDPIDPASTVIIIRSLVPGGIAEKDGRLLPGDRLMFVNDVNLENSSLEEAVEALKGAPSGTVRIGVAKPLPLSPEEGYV

T8: NHERF3_3, Q5T2W1
T8 sequence (Q5T2W1 238-333, limits assumed, looked up): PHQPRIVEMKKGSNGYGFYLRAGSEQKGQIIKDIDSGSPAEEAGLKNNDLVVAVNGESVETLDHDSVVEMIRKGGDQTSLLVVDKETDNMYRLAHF

T9: PDZRN3_1, Q9UPQ7
T9 sequence (Q9UPQ7 244-349, limits assumed, looked up): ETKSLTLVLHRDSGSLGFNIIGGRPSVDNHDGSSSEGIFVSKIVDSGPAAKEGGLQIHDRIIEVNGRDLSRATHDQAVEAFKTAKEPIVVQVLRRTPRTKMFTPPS

T10: RAPGEF6, Q8TEU7
T10 sequence (Q8TEU7 525-625, limits assumed, looked up): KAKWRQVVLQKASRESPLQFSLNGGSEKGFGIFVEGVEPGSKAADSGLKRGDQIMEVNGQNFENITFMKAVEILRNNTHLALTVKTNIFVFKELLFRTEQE

T11: SIPA1L2, Q9P2F8
T11 sequence (Q9P2F8 945-1036, limits assumed, looked up): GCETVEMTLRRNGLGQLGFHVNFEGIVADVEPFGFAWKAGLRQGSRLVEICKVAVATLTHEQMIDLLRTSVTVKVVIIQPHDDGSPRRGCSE

T12: SNTG2, Q9NY99
T12 sequence (Q9NY99 68-166, limits assumed, looked up): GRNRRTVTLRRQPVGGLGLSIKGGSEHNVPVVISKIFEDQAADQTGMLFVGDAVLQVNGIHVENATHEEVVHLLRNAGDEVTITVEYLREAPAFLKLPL


What follows are binders tested against AHNAK1, Q09666 (assay: holdup assay). Details: plain residues with an end cap or a label only (N-terminal biotin on a linker: (peg)3).
AHNAK1, Q09666, sequence (Q09666 4-100): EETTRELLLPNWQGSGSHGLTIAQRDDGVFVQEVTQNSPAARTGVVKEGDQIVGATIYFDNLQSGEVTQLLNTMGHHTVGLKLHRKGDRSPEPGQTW
Set-up: key: below the threshold = too weak to quantify, mostly under pKd 3.1 to 4
With RRRRSQSRESQC [HBV-HBc, P03193] the pKd was “below the threshold”.

These binders were tested against T1, DFNB31_1, Q9P202 (assay: holdup assay). Details: plain residues with an end cap or a label only (N-terminal biotin on a linker: (peg)3).
Set-up: key: below the threshold = too weak to quantify, mostly under pKd 3.1 to 4
In the case of RRRRSQSRESQC [HBV-HBc, P03193], the pKd is reported as 3.92.

The binders below were run against DLG1_3, Q12959 (assay: holdup assay). Details: plain residues with an end cap or a label only (N-terminal biotin on a linker: (peg)3).
DLG1_3, Q12959, sequence (Q12959 457-571): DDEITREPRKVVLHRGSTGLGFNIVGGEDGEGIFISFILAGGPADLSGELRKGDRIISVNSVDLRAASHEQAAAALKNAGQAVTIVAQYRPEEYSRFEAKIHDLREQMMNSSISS
Set-up: key: below the threshold = too weak to quantify, mostly under pKd 3.1 to 4
RRRRSQSRESQC [HBV-HBc, P03193] showed a pKd of 3.98.

Each binder was assayed against T2, DLG3_1, Q92796 (assay: holdup assay). Details: plain residues with an end cap or a label only (N-terminal biotin on a linker: (peg)3).
Set-up: key: below the threshold = too weak to quantify, mostly under pKd 3.1 to 4
In the case of RRRRSQSRESQC [HBV-HBc, P03193], the pKd is reported as 3.59.

Each binder was assayed against T3, DLG3_2, Q92796 (assay: holdup assay). Details: plain residues with an end cap or a label only (N-terminal biotin on a linker: (peg)3).
Set-up: key: below the threshold = too weak to quantify, mostly under pKd 3.1 to 4
Binder RRRRSQSRESQC [HBV-HBc, P03193] has a pKd of 4.56.

These binders were tested against FRMPD2_3, Q68DX3 (assay: holdup assay). Details: plain residues with an end cap or a label only (N-terminal biotin on a linker: (peg)3).
FRMPD2_3, Q68DX3, sequence (Q68DX3 1073-1166): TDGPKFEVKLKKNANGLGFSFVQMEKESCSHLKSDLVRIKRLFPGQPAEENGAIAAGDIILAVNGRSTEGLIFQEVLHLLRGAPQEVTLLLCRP
Set-up: key: below the threshold = too weak to quantify, mostly under pKd 3.1 to 4
RRRRSQSRESQC [HBV-HBc, P03193] was tested, and the pKd was “below the threshold”.

The binders below were run against GRID2IP_1, A4D2P6 (assay: holdup assay). Details: plain residues with an end cap or a label only (N-terminal biotin on a linker: (peg)3).
GRID2IP_1, A4D2P6, sequence (A4D2P6 1-87): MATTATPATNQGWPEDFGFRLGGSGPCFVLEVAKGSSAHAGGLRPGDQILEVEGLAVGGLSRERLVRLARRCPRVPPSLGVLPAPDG
Set-up: key: below the threshold = too weak to quantify, mostly under pKd 3.1 to 4
For RRRRSQSRESQC [HBV-HBc, P03193], the pKd was “below the threshold”.

The binders below were run against Inadl_3, Q8NI35 (assay: holdup assay). Details: plain residues with an end cap or a label only (N-terminal biotin on a linker: (peg)3).
Inadl_3, Q8NI35, sequence (Q8NI35 359-469): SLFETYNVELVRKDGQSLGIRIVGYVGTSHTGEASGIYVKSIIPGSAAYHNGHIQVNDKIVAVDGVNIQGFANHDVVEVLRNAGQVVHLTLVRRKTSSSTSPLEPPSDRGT
Set-up: key: below the threshold = too weak to quantify, mostly under pKd 3.1 to 4
RRRRSQSRESQC [HBV-HBc, P03193] was tested, and the pKd was “below the threshold”.

What follows are binders tested against Inadl_5, Q8NI35 (assay: holdup assay). Details: plain residues with an end cap or a label only (N-terminal biotin on a linker: (peg)3).
Inadl_5, Q8NI35, sequence (Q8NI35 673-780): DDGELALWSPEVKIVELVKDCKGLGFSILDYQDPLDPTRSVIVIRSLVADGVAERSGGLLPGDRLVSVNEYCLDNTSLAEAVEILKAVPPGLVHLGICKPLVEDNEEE
Set-up: key: below the threshold = too weak to quantify, mostly under pKd 3.1 to 4
RRRRSQSRESQC [HBV-HBc, P03193] was tested, and the pKd was “below the threshold”.

What follows are binders tested against LDB3, O75112 (assay: holdup assay). Details: plain residues with an end cap or a label only (N-terminal biotin on a linker: (peg)3).
LDB3, O75112, sequence (O75112 1-94): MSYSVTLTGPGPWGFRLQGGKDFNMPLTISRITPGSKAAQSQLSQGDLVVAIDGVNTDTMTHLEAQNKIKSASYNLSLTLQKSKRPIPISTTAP
Set-up: key: below the threshold = too weak to quantify, mostly under pKd 3.1 to 4
For RRRRSQSRESQC [HBV-HBc, P03193], the pKd was “below the threshold”.

What follows are binders tested against T4, LIN7B, Q9HAP6 (assay: holdup assay). Details: plain residues with an end cap or a label only (N-terminal biotin on a linker: (peg)3).
Set-up: key: below the threshold = too weak to quantify, mostly under pKd 3.1 to 4
RRRRSQSRESQC [HBV-HBc, P03193] gave a pKd of 3.7.

What follows are binders tested against T5, MPDZ_10, O75970 (assay: holdup assay). Details: plain residues with an end cap or a label only (N-terminal biotin on a linker: (peg)3).
Set-up: key: below the threshold = too weak to quantify, mostly under pKd 3.1 to 4
In the case of RRRRSQSRESQC [HBV-HBc, P03193], the pKd is reported as “below the threshold”.

These binders were tested against T6, MPDZ_12, O75970 (assay: holdup assay). Details: plain residues with an end cap or a label only (N-terminal biotin on a linker: (peg)3).
Set-up: key: below the threshold = too weak to quantify, mostly under pKd 3.1 to 4
For RRRRSQSRESQC [HBV-HBc, P03193], the pKd was “below the threshold”.

These binders were tested against T7, MPDZ_5, O75970 (assay: holdup assay). Details: plain residues with an end cap or a label only (N-terminal biotin on a linker: (peg)3).
Set-up: key: below the threshold = too weak to quantify, mostly under pKd 3.1 to 4
In the case of RRRRSQSRESQC [HBV-HBc, P03193], the pKd is reported as “below the threshold”.

The binders below were run against T8, NHERF3_3, Q5T2W1 (assay: holdup assay). Details: plain residues with an end cap or a label only (N-terminal biotin on a linker: (peg)3).
Set-up: key: below the threshold = too weak to quantify, mostly under pKd 3.1 to 4
For RRRRSQSRESQC [HBV-HBc, P03193], the pKd was “below the threshold”.

Each binder was assayed against NHERF4_2, Q86UT5 (assay: holdup assay). Details: plain residues with an end cap or a label only (N-terminal biotin on a linker: (peg)3).
NHERF4_2, Q86UT5, sequence (Q86UT5 220-308): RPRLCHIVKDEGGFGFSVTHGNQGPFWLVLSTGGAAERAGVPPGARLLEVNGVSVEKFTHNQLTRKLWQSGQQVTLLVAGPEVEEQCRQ
Set-up: key: below the threshold = too weak to quantify, mostly under pKd 3.1 to 4
With RRRRSQSRESQC [HBV-HBc, P03193] the pKd was “below the threshold”.

What follows are binders tested against NHERF4_4, Q86UT5 (assay: holdup assay). Details: plain residues with an end cap or a label only (N-terminal biotin on a linker: (peg)3).
NHERF4_4, Q86UT5, sequence (Q86UT5 464-550): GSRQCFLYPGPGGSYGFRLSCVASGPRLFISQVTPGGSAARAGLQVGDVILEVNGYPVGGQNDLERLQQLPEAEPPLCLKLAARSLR
Set-up: key: below the threshold = too weak to quantify, mostly under pKd 3.1 to 4
In the case of RRRRSQSRESQC [HBV-HBc, P03193], the pKd is reported as “below the threshold”.

These binders were tested against T9, PDZRN3_1, Q9UPQ7 (assay: holdup assay). Details: plain residues with an end cap or a label only (N-terminal biotin on a linker: (peg)3).
Set-up: key: below the threshold = too weak to quantify, mostly under pKd 3.1 to 4
With RRRRSQSRESQC [HBV-HBc, P03193] the pKd was 3.89.

Each binder was assayed against T10, RAPGEF6, Q8TEU7 (assay: holdup assay). Details: plain residues with an end cap or a label only (N-terminal biotin on a linker: (peg)3).
Set-up: key: below the threshold = too weak to quantify, mostly under pKd 3.1 to 4
For RRRRSQSRESQC [HBV-HBc, P03193], the pKd was “below the threshold”.

The binders below were run against SCRIB_1, Q14160 (assay: holdup assay). Details: plain residues with an end cap or a label only (N-terminal biotin on a linker: (peg)3).
SCRIB_1, Q14160, sequence (Q14160 718-814): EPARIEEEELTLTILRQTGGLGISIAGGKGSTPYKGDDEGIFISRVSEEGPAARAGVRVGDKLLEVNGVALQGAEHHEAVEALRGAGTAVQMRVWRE
Set-up: key: below the threshold = too weak to quantify, mostly under pKd 3.1 to 4
RRRRSQSRESQC [HBV-HBc, P03193] gave a pKd of 4.48.

Each binder was assayed against T11, SIPA1L2, Q9P2F8 (assay: holdup assay). Details: plain residues with an end cap or a label only (N-terminal biotin on a linker: (peg)3).
Set-up: key: below the threshold = too weak to quantify, mostly under pKd 3.1 to 4
With RRRRSQSRESQC [HBV-HBc, P03193] the pKd was “below the threshold”.

The binders below were run against T12, SNTG2, Q9NY99 (assay: holdup assay). Details: plain residues with an end cap or a label only (N-terminal biotin on a linker: (peg)3).
Set-up: key: below the threshold = too weak to quantify, mostly under pKd 3.1 to 4
Work on RRRRSQSRESQC [HBV-HBc, P03193] yielded a pKd of 4.21.

These binders were tested against SNX27, Q96L92 (assay: holdup assay). Details: plain residues with an end cap or a label only (N-terminal biotin on a linker: (peg)3).
Set-up: key: below the threshold = too weak to quantify, mostly under pKd 3.1 to 4
For RRRRSQSRESQC [HBV-HBc, P03193], the pKd was 4.76.

Each binder was assayed against TJP1_3, Q07157 (assay: holdup assay). Details: plain residues with an end cap or a label only (N-terminal biotin on a linker: (peg)3).
TJP1_3, Q07157, sequence (Q07157 416-512): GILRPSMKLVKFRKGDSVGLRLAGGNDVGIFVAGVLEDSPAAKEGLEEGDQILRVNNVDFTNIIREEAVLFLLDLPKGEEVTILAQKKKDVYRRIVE
Set-up: key: below the threshold = too weak to quantify, mostly under pKd 3.1 to 4
RRRRSQSRESQC [HBV-HBc, P03193] was tested, and the pKd was “below the threshold”.
